Source: US20230002480A1

Legend:
Test in all cases: cell-based or functional assay
[1] = molecular target: HIV-1 Env of pseudovirus Ce0682_E4 (HIV-1)
[2] = molecular target: HIV-1 Env of pseudovirus 235-47 (HIV-1)
[3] = molecular target: HIV-1 Env of pseudovirus Du172.17 (HIV-1)
[4] = molecular target: HIV-1 Env of pseudovirus 191084 B7-19 (HIV-1)
[5] = molecular target: HIV-1 Env of pseudovirus 246F C1G (HIV-1)
[6] = molecular target: HIV-1 Env of pseudovirus 6535.3 (HIV-1)
[7] = molecular target: HIV-1 Env of pseudovirus Q259.d2.17 (HIV-1)
[8] = molecular target: HIV-1 Env of pseudovirus CAP210.2.00.E8 (HIV-1)
[9] = molecular target: HIV-1 Env of pseudovirus BJOX009000.02.4 (HIV-1)
[10] = molecular target: HIV-1 Env of pseudovirus R2184.c04 (HIV-1)
[11] = molecular target: HIV-1 Env of pseudovirus HIV-16055-2.3 (HIV-1)
[12] = molecular target: HIV-1 Env of pseudovirus 3103.v3.c10 (HIV-1)
[13] = molecular target: HIV-1 Env of pseudovirus R3265.c06 (HIV-1)
[14] = molecular target: HIV-1 Env of pseudovirus Ce0393_C3 (HIV-1)
[15] = molecular target: HIV-1 Env of pseudovirus X1193_c1 (HIV-1)
[16] = molecular target: HIV-1 Env of pseudovirus Ce704809221_1B3 (HIV-1)
[17] = molecular target: HIV-1 Env of pseudovirus C1080.c03 (HIV-1)
[18] = molecular target: HIV-1 Env of pseudovirus 3301.v1.c24 (HIV-1)
[19] = molecular target: HIV-1 Env of pseudovirus 62357_14_D3_4589 (HIV-1)
[20] = molecular target: HIV-1 Env of pseudovirus 7030102001E5(Rev-) (HIV-1)
[21] = molecular target: HIV-1 Env of pseudovirus X1254_c3 (HIV-1)
[22] = molecular target: HIV-1 Env of pseudovirus CNE58 (HIV-1)
[23] = molecular target: HIV-1 Env of pseudovirus 620345.c01 (HIV-1)
[24] = molecular target: HIV-1 Env of pseudovirus REJO4541.67 (HIV-1)
[25] = molecular target: HIV-1 Env of pseudovirus CAAN5342.A2 (HIV-1)
[26] = molecular target: HIV-1 Env of pseudovirus Ce703010054_2A2 (HIV-1)
[27] = molecular target: HIV-1 Env of pseudovirus 249M B10 (HIV-1)
[28] = molecular target: HIV-1 Env of pseudovirus ZM233M.PB6 (HIV-1)
[29] = molecular target: HIV-1 Env of pseudovirus 1056_10_TA11_1826 (HIV-1)
[30] = molecular target: HIV-1 Env of pseudovirus 1054_07_TC4_1499 (HIV-1)
[31] = molecular target: HIV-1 Env of pseudovirus Q842.d12 (HIV-1)
[32] = molecular target: HIV-1 Env of pseudovirus T251-18 (HIV-1)
[33] = molecular target: HIV-1 Env of pseudovirus C3347.c11 (HIV-1)
[34] = molecular target: HIV-1 Env of pseudovirus 3817.v2.c59 (HIV-1)
[35] = molecular target: HIV-1 Env of pseudovirus 0815.v3.c3 (HIV-1)
[36] = molecular target: HIV-1 Env of pseudovirus HIV-001428-2.42 (HIV-1)

3BNC117 (antibody)
neutralization IC50 [1]: 0.03 µg/mL | neutralization IC80 [1]: 0.15 µg/mL | IC50, titer in TZM.bl cells [2]: 0.03 µg/mL | IC80, titer in TZM.bl cells [2]: 0.12 µg/mL | neutralization IC50 [3]: 1.19 µg/mL | neutralization IC80 [3]: 8.9 µg/mL | neutralization IC50 [4]: 0.07 µg/mL | neutralization IC80 [4]: 0.23 µg/mL | neutralization IC50 [5]: 19.3 µg/mL | neutralization IC80 [5]: > 50 µg/mL | neutralization IC50 [6]: 0.55 µg/mL | neutralization IC80 [6]: 2.44 µg/mL | neutralization IC50 [7]: 0.01 µg/mL | neutralization IC80 [7]: 0.05 µg/mL | neutralization IC50 [8]: 17.2 µg/mL | neutralization IC80 [8]: > 50 µg/mL | IC50, titer in TZM.bl cells [9]: 0.4 µg/mL | IC80, titer in TZM.bl cells [9]: 1.79 µg/mL | IC50, titer in TZM.bl cells [10]: 0.03 µg/mL | IC80, titer in TZM.bl cells [10]: 0.1 µg/mL | neutralization IC50 [11]: 5.6 µg/mL | neutralization IC80 [11]: > 50 µg/mL | IC50, titer in TZM.bl cells [12]: 0.22 µg/mL | IC80, titer in TZM.bl cells [12]: 0.85 µg/mL | IC50, titer in TZM.bl cells [13]: 0.48 µg/mL | IC80, titer in TZM.bl cells [13]: 13 µg/mL | neutralization IC50 [14]: 0.2 µg/mL | neutralization IC80 [14]: 0.67 µg/mL | IC50, titer in TZM.bl cells [15]: 0.06 µg/mL | IC80, titer in TZM.bl cells [15]: 0.25 µg/mL | neutralization IC50 [16]: 0.08 µg/mL | neutralization IC80 [16]: 0.31 µg/mL | IC50, titer in TZM.bl cells [17]: 0.25 µg/mL | IC80, titer in TZM.bl cells [17]: 1.73 µg/mL | IC50, titer in TZM.bl cells [18]: 0.01 µg/mL | IC80, titer in TZM.bl cells [18]: 0.05 µg/mL | neutralization IC50 [19]: 0.06 µg/mL | neutralization IC80 [19]: 0.26 µg/mL | neutralization IC50 [20]: 0.29 µg/mL | neutralization IC80 [20]: 1.44 µg/mL | IC50, titer in TZM.bl cells [21]: 0.08 µg/mL | IC80, titer in TZM.bl cells [21]: 0.27 µg/mL | neutralization IC50 [22]: 0.25 µg/mL | neutralization IC80 [22]: 2.03 µg/mL | IC50, titer in TZM.bl cells [23]: > 15 µg/mL | IC80, titer in TZM.bl cells [23]: > 15 µg/mL | neutralization IC50 [24]: 10 ng/mL | neutralization IC80 [24]: 0.05 µg/mL | neutralization IC50 [25]: 0.42 µg/mL | neutralization IC80 [25]: 1.51 µg/mL | neutralization IC50 [26]: 0.37 µg/mL | neutralization IC80 [26]: 1.67 µg/mL | neutralization IC50 [27]: 0.1 µg/mL | neutralization IC80 [27]: 0.4 µg/mL | neutralization IC50 [28]: 0.13 µg/mL | neutralization IC80 [28]: 0.85 µg/mL | neutralization IC50 [29]: 0.3 µg/mL | neutralization IC80 [29]: 1.82 µg/mL | neutralization IC50 [30]: 0.07 µg/mL | neutralization IC80 [30]: 0.49 µg/mL | neutralization IC50 [31]: < 0.01 µg/mL | neutralization IC80 [31]: 0.01 µg/mL | IC50, titer in TZM.bl cells [32]: 0.26 µg/mL | IC80, titer in TZM.bl cells [32]: 0.82 µg/mL | IC50, titer in TZM.bl cells [33]: 0.03 µg/mL | IC80, titer in TZM.bl cells [33]: 0.13 µg/mL | IC50, titer in TZM.bl cells [34]: 0.15 µg/mL | IC80, titer in TZM.bl cells [34]: 0.52 µg/mL | IC50, titer in TZM.bl cells [35]: 0.01 µg/mL | IC80, titer in TZM.bl cells [35]: 0.02 µg/mL | neutralization IC50 [36]: 3 ng/mL | neutralization IC80 [36]: 0.02 µg/mL

NIH 45-46 (antibody)
neutralization IC50 [1]: 0.07 µg/mL | neutralization IC80 [1]: 0.25 µg/mL | IC50, titer in TZM.bl cells [2]: 0.3 µg/mL | IC80, titer in TZM.bl cells [2]: 1.49 µg/mL | neutralization IC50 [3]: > 30 µg/mL | neutralization IC80 [3]: > 30 µg/mL | neutralization IC50 [4]: 0.02 µg/mL | neutralization IC80 [4]: 0.07 µg/mL | neutralization IC50 [5]: > 50 µg/mL | neutralization IC80 [5]: > 50 µg/mL | neutralization IC50 [6]: 0.14 µg/mL | neutralization IC80 [6]: 0.28 µg/mL | neutralization IC50 [7]: 0.01 µg/mL | neutralization IC80 [7]: 0.06 µg/mL | neutralization IC50 [8]: > 50 µg/mL | neutralization IC80 [8]: > 50 µg/mL | IC50, titer in TZM.bl cells [9]: 0.26 µg/mL | IC80, titer in TZM.bl cells [9]: 1.16 µg/mL | IC50, titer in TZM.bl cells [10]: 0.03 µg/mL | IC80, titer in TZM.bl cells [10]: 0.12 µg/mL | neutralization IC50 [11]: 0.02 µg/mL | neutralization IC80 [11]: 0.06 µg/mL | IC50, titer in TZM.bl cells [12]: 1.66 µg/mL | IC80, titer in TZM.bl cells [12]: 6.57 µg/mL | IC50, titer in TZM.bl cells [13]: 0.04 µg/mL | IC80, titer in TZM.bl cells [13]: 0.44 µg/mL | neutralization IC50 [14]: 0.32 µg/mL | neutralization IC80 [14]: 1.07 µg/mL | IC50, titer in TZM.bl cells [15]: 0.04 µg/mL | IC80, titer in TZM.bl cells [15]: 0.16 µg/mL | neutralization IC50 [16]: 0.15 µg/mL | neutralization IC80 [16]: 0.88 µg/mL | IC50, titer in TZM.bl cells [17]: 1.79 µg/mL | IC80, titer in TZM.bl cells [17]: 18 µg/mL | IC50, titer in TZM.bl cells [18]: 0.01 µg/mL | IC80, titer in TZM.bl cells [18]: 0.03 µg/mL | neutralization IC50 [19]: 0.05 µg/mL | neutralization IC80 [19]: 0.22 µg/mL | neutralization IC50 [20]: 0.14 µg/mL | neutralization IC80 [20]: 0.63 µg/mL | IC50, titer in TZM.bl cells [21]: 0.08 µg/mL | IC80, titer in TZM.bl cells [21]: 0.08 µg/mL | neutralization IC50 [22]: 0.25 µg/mL | neutralization IC80 [22]: 1.49 µg/mL | IC50, titer in TZM.bl cells [23]: > 30 µg/mL | IC80, titer in TZM.bl cells [23]: > 30 µg/mL | neutralization IC50 [24]: 3 ng/mL | neutralization IC80 [24]: 0.01 µg/mL | neutralization IC50 [25]: 0.11 µg/mL | neutralization IC80 [25]: 0.33 µg/mL | neutralization IC50 [26]: 0.22 µg/mL | neutralization IC80 [26]: 0.97 µg/mL | neutralization IC50 [27]: 0.04 µg/mL | neutralization IC80 [27]: 0.17 µg/mL | neutralization IC50 [28]: 1.86 µg/mL | neutralization IC80 [28]: 16.5 µg/mL | neutralization IC50 [29]: 0.12 µg/mL | neutralization IC80 [29]: 0.59 µg/mL | neutralization IC50 [30]: 0.07 µg/mL | neutralization IC80 [30]: 0.61 µg/mL | neutralization IC50 [31]: 0.03 µg/mL | neutralization IC80 [31]: 0.03 µg/mL | IC50, titer in TZM.bl cells [32]: 5.26 µg/mL | IC80, titer in TZM.bl cells [32]: 5.26 µg/mL | IC50, titer in TZM.bl cells [33]: 0.03 µg/mL | IC80, titer in TZM.bl cells [33]: 0.18 µg/mL | IC50, titer in TZM.bl cells [34]: > 50 µg/mL | IC80, titer in TZM.bl cells [34]: > 50 µg/mL | IC50, titer in TZM.bl cells [35]: 0.01 µg/mL | IC80, titer in TZM.bl cells [35]: 0.03 µg/mL | neutralization IC50 [36]: < 1 ng/mL | neutralization IC80 [36]: 0.01 µg/mL
